Patent publication US20200079833A1 (AstraZeneca / MedImmune, published 2020)
Starred links: 1 amine or outer side, 2 acyl side, 3 side chain; linkers in the order of their positions; H or OH if unused. Non-standard residues stand in square brackets, D forms with d. Groups on a side chain read outwards from the residue. Primed or numbered codes have the meaning given here. No end group written: not given here. *: point of attachment. γGlu = O=C(O)[C@H](CCC(=O)[*:2])N[*:1]; Stearoyl = CCCCCCCCCCCCCCCCCC(=O)*; αMeF = C[C@](N)(Cc1ccccc1)C(=O)O; αMeK = C[C@](N)(CCCCN)C(=O)O; αMeS = C[C@](N)(CO)C(=O)O; PEG2′ = not defined here; Aib = CC(C)(N)C(=O)O; Ahx = NCCCCCC(=O)O

Key:
Assay in all cases: cell-based or functional assay
[1] = biological target: glucagon receptor (GCGR) (human, UniProt P47871 26-477)
[2] = biological target: GLP-1 receptor (GLP-1R) (human, UniProt P43220 24-463)
[3] = biological target: T1, glucose-dependent insulinotropic peptide (gastric inhibitory polypeptide) receptor (GIPR) (human, UniProt P48546 22-466)
T1 sequence (looked up): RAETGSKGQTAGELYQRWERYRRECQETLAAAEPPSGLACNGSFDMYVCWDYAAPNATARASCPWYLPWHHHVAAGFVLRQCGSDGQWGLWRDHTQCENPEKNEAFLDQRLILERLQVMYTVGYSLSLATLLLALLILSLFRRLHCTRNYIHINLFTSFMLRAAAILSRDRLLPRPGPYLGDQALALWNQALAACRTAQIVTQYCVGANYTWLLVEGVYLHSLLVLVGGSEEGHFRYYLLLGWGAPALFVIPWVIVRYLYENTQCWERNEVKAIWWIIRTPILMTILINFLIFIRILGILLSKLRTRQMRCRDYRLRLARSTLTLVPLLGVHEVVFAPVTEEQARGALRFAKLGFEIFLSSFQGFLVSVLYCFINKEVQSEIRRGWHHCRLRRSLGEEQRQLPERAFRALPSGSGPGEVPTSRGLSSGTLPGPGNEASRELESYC

glucagon receptor (GCGR), sequence (P47871 26-477): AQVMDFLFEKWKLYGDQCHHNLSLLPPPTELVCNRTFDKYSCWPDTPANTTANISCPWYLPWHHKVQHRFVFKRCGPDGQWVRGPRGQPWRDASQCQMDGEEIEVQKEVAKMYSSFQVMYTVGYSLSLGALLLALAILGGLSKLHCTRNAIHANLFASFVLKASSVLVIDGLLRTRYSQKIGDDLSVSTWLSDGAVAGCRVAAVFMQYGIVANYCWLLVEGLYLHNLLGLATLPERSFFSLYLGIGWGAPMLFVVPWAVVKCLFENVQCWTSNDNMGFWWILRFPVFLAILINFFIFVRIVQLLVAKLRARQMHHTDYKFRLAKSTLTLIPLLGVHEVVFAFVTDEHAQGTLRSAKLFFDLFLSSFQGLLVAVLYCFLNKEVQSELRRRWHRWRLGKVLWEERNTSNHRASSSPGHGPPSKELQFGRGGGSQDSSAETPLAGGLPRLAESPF

Binder | Primary assay EC50 (cAMP), Gluc-R, first run [1] [nM] | Primary assay EC50 (cAMP), Gluc-R, second run [1] [nM] | Primary assay EC50 (cAMP), GLP-1R n1 [2] [nM] | Primary assay EC50 (cAMP), GLP-1R n2 [2] [nM] | Primary assay EC50 (cAMP), Mean pM GLP-1R [2] [pM] | Primary assay EC50 (cAMP), GIP-R, first run [3] [nM] | Primary assay EC50 (cAMP), GIP-R, second run [3] [nM]
H[Aib]EGS[αMeF]TSDV[αMeS]S[αMeF]LEGEAA[αMeK]E[αMeF]IA[αMeF]VVK([PEG2′-PEG2′-Stearoyl])GG-NH2 [SEQ ID NO 189] | 27 | 27 | 0.03 | 0.012 | 20.8 | 27 | 27
H[Aib]EGS[αMeF]TSDV[αMeS]S[αMeF]LEGEAA[αMeK]E[αMeF]IA[αMeF]VVK([PEG2′-PEG2′-PEG2′-Stearoyl])GG-NH2 [SEQ ID NO 190] | 26 | 26 | 0.0097 | 0.0047 | 7.2 | 26 | 26
H[Aib]EGS[αMeF]TSDV[αMeS]S[αMeF]LEGEAA[αMeK]E[αMeF]IA[αMeF]VVK([γGlu-Stearoyl])GG-NH2 (N-terminus assumed; SMILES CCCCCCCCCCCCCCCCCC(=O)N[C@@H](CCC(=O)NCCCC[C@H](NC(=O)[C@@H](NC(=O)[C@@H](NC(=O)[C@](C)(Cc1ccccc1)NC(=O)[C@H](C)NC(=O)[C@@H](NC(=O)[C@](C)(Cc1ccccc1)NC(=O)[C@H](CCC(=O)O)NC(=O)[C@](C)(CCCCN)NC(=O)[C@H](C)NC(=O)[C@H](C)NC(=O)[C@H](CCC(=O)O)NC(=O)CNC(=O)[C@H](CCC(=O)O)NC(=O)[C@H](CC(C)C)NC(=O)[C@](C)(Cc1ccccc1)NC(=O)[C@H](CO)NC(=O)[C@](C)(CO)NC(=O)[C@@H](NC(=O)[C@H](CC(=O)O)NC(=O)[C@H](CO)NC(=O)[C@@H](NC(=O)[C@](C)(Cc1ccccc1)NC(=O)[C@H](CO)NC(=O)CNC(=O)[C@H](CCC(=O)O)NC(=O)C(C)(C)NC(=O)[C@@H](N)Cc1c[nH]cn1)[C@@H](C)O)C(C)C)[C@@H](C)CC)C(C)C)C(C)C)C(=O)NCC(=O)NCC(N)=O)C(=O)O) [SEQ ID NO 191] | 28 | 28 | 0.25 | 0.11 | 182 | 28 | 28
H[Aib]EGS[αMeF]TSDV[αMeS]S[αMeF]LEGEAA[αMeK]E[αMeF]IA[αMeF]VVK([γGlu-γGlu-Stearoyl])GG-NH2 (N-terminus assumed; SMILES CCCCCCCCCCCCCCCCCC(=O)N[C@@H](CCC(=O)N[C@@H](CCC(=O)NCCCC[C@H](NC(=O)[C@@H](NC(=O)[C@@H](NC(=O)[C@](C)(Cc1ccccc1)NC(=O)[C@H](C)NC(=O)[C@@H](NC(=O)[C@](C)(Cc1ccccc1)NC(=O)[C@H](CCC(=O)O)NC(=O)[C@](C)(CCCCN)NC(=O)[C@H](C)NC(=O)[C@H](C)NC(=O)[C@H](CCC(=O)O)NC(=O)CNC(=O)[C@H](CCC(=O)O)NC(=O)[C@H](CC(C)C)NC(=O)[C@](C)(Cc1ccccc1)NC(=O)[C@H](CO)NC(=O)[C@](C)(CO)NC(=O)[C@@H](NC(=O)[C@H](CC(=O)O)NC(=O)[C@H](CO)NC(=O)[C@@H](NC(=O)[C@](C)(Cc1ccccc1)NC(=O)[C@H](CO)NC(=O)CNC(=O)[C@H](CCC(=O)O)NC(=O)C(C)(C)NC(=O)[C@@H](N)Cc1c[nH]cn1)[C@@H](C)O)C(C)C)[C@@H](C)CC)C(C)C)C(C)C)C(=O)NCC(=O)NCC(N)=O)C(=O)O)C(=O)O) [SEQ ID NO 192] | 27 | 27 | 0.17 | 0.06 | 114 | 27 | 27
H[Aib]EGS[αMeF]TSDV[αMeS]S[αMeF]LEGEAA[αMeK]E[αMeF]IA[αMeF]VVK([γGlu-γGlu-γGlu-Stearoyl])GG-NH2 (N-terminus assumed; SMILES CCCCCCCCCCCCCCCCCC(=O)N[C@@H](CCC(=O)N[C@@H](CCC(=O)N[C@@H](CCC(=O)NCCCC[C@H](NC(=O)[C@@H](NC(=O)[C@@H](NC(=O)[C@](C)(Cc1ccccc1)NC(=O)[C@H](C)NC(=O)[C@@H](NC(=O)[C@](C)(Cc1ccccc1)NC(=O)[C@H](CCC(=O)O)NC(=O)[C@](C)(CCCCN)NC(=O)[C@H](C)NC(=O)[C@H](C)NC(=O)[C@H](CCC(=O)O)NC(=O)CNC(=O)[C@H](CCC(=O)O)NC(=O)[C@H](CC(C)C)NC(=O)[C@](C)(Cc1ccccc1)NC(=O)[C@H](CO)NC(=O)[C@](C)(CO)NC(=O)[C@@H](NC(=O)[C@H](CC(=O)O)NC(=O)[C@H](CO)NC(=O)[C@@H](NC(=O)[C@](C)(Cc1ccccc1)NC(=O)[C@H](CO)NC(=O)CNC(=O)[C@H](CCC(=O)O)NC(=O)C(C)(C)NC(=O)[C@@H](N)Cc1c[nH]cn1)[C@@H](C)O)C(C)C)[C@@H](C)CC)C(C)C)C(C)C)C(=O)NCC(=O)NCC(N)=O)C(=O)O)C(=O)O)C(=O)O) [SEQ ID NO 193] | 26 | 26 | 0.33 | 0.095 | 213 | 26 | 26
H[Aib]EGS[αMeF]TSDV[αMeS]S[αMeF]LEGEAA[αMeK]E[αMeF]IA[αMeF]VVK([Ahx-Stearoyl])GG-NH2 (N-terminus assumed; SMILES CCCCCCCCCCCCCCCCCC(=O)NCCCCCC(=O)NCCCC[C@H](NC(=O)[C@@H](NC(=O)[C@@H](NC(=O)[C@](C)(Cc1ccccc1)NC(=O)[C@H](C)NC(=O)[C@@H](NC(=O)[C@](C)(Cc1ccccc1)NC(=O)[C@H](CCC(=O)O)NC(=O)[C@](C)(CCCCN)NC(=O)[C@H](C)NC(=O)[C@H](C)NC(=O)[C@H](CCC(=O)O)NC(=O)CNC(=O)[C@H](CCC(=O)O)NC(=O)[C@H](CC(C)C)NC(=O)[C@](C)(Cc1ccccc1)NC(=O)[C@H](CO)NC(=O)[C@](C)(CO)NC(=O)[C@@H](NC(=O)[C@H](CC(=O)O)NC(=O)[C@H](CO)NC(=O)[C@@H](NC(=O)[C@](C)(Cc1ccccc1)NC(=O)[C@H](CO)NC(=O)CNC(=O)[C@H](CCC(=O)O)NC(=O)C(C)(C)NC(=O)[C@@H](N)Cc1c[nH]cn1)[C@@H](C)O)C(C)C)[C@@H](C)CC)C(C)C)C(C)C)C(=O)NCC(=O)NCC(N)=O) [SEQ ID NO 194] | 28 | 28 | 0.24 | 0.068 | 154 | 28 | 28
H[Aib]EGS[αMeF]TSDV[αMeS]S[αMeF]LEGEAA[αMeK]E[αMeF]IA[αMeF]VVK([Ahx-Ahx-Stearoyl])GG-NH2 (N-terminus assumed; SMILES CCCCCCCCCCCCCCCCCC(=O)NCCCCCC(=O)NCCCCCC(=O)NCCCC[C@H](NC(=O)[C@@H](NC(=O)[C@@H](NC(=O)[C@](C)(Cc1ccccc1)NC(=O)[C@H](C)NC(=O)[C@@H](NC(=O)[C@](C)(Cc1ccccc1)NC(=O)[C@H](CCC(=O)O)NC(=O)[C@](C)(CCCCN)NC(=O)[C@H](C)NC(=O)[C@H](C)NC(=O)[C@H](CCC(=O)O)NC(=O)CNC(=O)[C@H](CCC(=O)O)NC(=O)[C@H](CC(C)C)NC(=O)[C@](C)(Cc1ccccc1)NC(=O)[C@H](CO)NC(=O)[C@](C)(CO)NC(=O)[C@@H](NC(=O)[C@H](CC(=O)O)NC(=O)[C@H](CO)NC(=O)[C@@H](NC(=O)[C@](C)(Cc1ccccc1)NC(=O)[C@H](CO)NC(=O)CNC(=O)[C@H](CCC(=O)O)NC(=O)C(C)(C)NC(=O)[C@@H](N)Cc1c[nH]cn1)[C@@H](C)O)C(C)C)[C@@H](C)CC)C(C)C)C(C)C)C(=O)NCC(=O)NCC(N)=O) [SEQ ID NO 195] | 27 | 27 | 0.17 | 0.046 | 107 | 27 | 27
